Assay results taken from patent US20150158934A1 (UCL BUSINESS, published 2015).
Substitutions are numbered along the chain they refer to.

B1: L92E7 (VHH)
VHH: EVQLVESGGGLVQPGGSLRLSCAASGNIVSIDAAGWFRQAPGKQREPVATILTGGATNYADSVKGRFTISRDNAKNTVYLQMSSLKPEDTAVYYCYAPMIYYGGRYSDYWGQGTQVTVSS
notes: Purified by IMAC; tags not written into the chain
B2: L91F10 (VHH)
VHH: EVQLVESGGGLVQPGGSLTLSCVASGFTLDGYAIGWFRQAPGKEVESVSCITGRHGTIYYADSVMGRFTISRDNAKSTVYLQMNSLKPEDTAVYYCAADGFDTPCVAGTDWQYDYWGQGTQVTVSS
notes: as for B1
B3: L82B4F (VHH)
VHH: EVQLVESGGGLVQAGGSLRLSCAASGFTSDDYAIGWFRRAPGKEREGVSYISIEDGSTYSADSVKGRFTISSDYAKNTVYLQMNGLKPEDTAVYYCAAAILGDSVRWLQEYDYDYWGQGTQVTVSS
notes: Family member of L81H9; tags not written into the chain
B4: L8Cj3 (VHH)
VHH: EVQLVESGGGLVQAGGFLRLSCELRGSIFNQYAMAWFRQAPGKEREFVAGMGAVPHYGEFVKGRFTISRDNAKSTVYLQMSSLKPEDTAIYFCARSKSTYISYNSNGYDYWGRGTQVTVSS
notes: 207 chosen because J3r is said to carry S82aN against L8Cj3; also called L8CjJ3; L9Cj3
B5: L91B5 (VHH)
VHH: EVQLVESGGGLVQPGGSLRLSCAASGATFDDYAIGWFRQAPGKEREGVSYIGCNDGATYYAGSVKGRFTISCDYAKNTVYLQMNSLKPEDTAVYYCAAAAQWATIRWIHEYDYNIWGQGTQVTVSS
notes: Purified by IMAC
B6: L91H9 (VHH)
VHH: B5 VHH with P14A, A24V, A57S, N114D, I115T
notes: as for B1
B7: mAb 2G12 (antibody, V domains shown)
VH: EVQLVESGGGLVKAGGSLILSCGVSNFRISAHTMNWVRRVPGGGLEWVASISTSSTYRDYADAVKGRFTVSRDDLEDFVYLQMHKMRVEDTAIYYCARKGSDRLSDNDPFDAWGPGTVVTVSP
VL: DVVMTQSPSTLSASVGDTITITCRASQSIETWLAWYQQKPGKAPKLLIYKASTLKTGVPSRFSGSGSGTEFTLTISGLQFDDFATYHCQHYAGYSATFGQGTRVEIKR
B8: L91C2 (VHH)
VHH: EVQLVESGGGLVQPGGSLRLSCAASGFTLDGYAIGWFRQAPGKEREAISCITTAGTIYYADSVKGRVTISRDNAKNTVYLQMNSLKPEDTAVYLCAADGFDTPCVAGTDWGYDYEGQGTQVTVSS
notes: as for B1

What follows are binders tested against T1, gp140UG37 (subtype A), gp140 envelope glycoprotein from the HIV-1 group M A-clade isolate 92UG037 (HIV-1) (assay: SPR).
T1 construct: also called UG037 gp140/420 (A); gp140-UG037

Binder	Kd	koff	kon
B1	11.2 nM	0.00025 s⁻¹	22200 M⁻¹ s⁻¹
B2	3.98 nM	0.00012 s⁻¹	29300 M⁻¹ s⁻¹
B3	0.0031 nM	3.25e-08 s⁻¹	10500 M⁻¹ s⁻¹
B4	0.00702 nM	5.48e-08 s⁻¹	7800 M⁻¹ s⁻¹
B5	0.174 nM	–	–
B6	0.0102 nM	9.81e-08 s⁻¹	9610 M⁻¹ s⁻¹

The binders below were run against gp120IIIB (subgroup B) (HIV-1, UniProt P04578 33-511) (assay: SPR).

Binder	Kd	koff	kon
B7	1.91 nM	0.000314 s⁻¹	165000 M⁻¹ s⁻¹

What follows are binders tested against T2, gp140CN54 (subtype B'/C), gp140 envelope glycoprotein from the HIV-1 group M CRF07-B/C-clade isolate 97CN54 (HIV-1) (assay: SPR).
T2 construct: also called CN54 gp140/420 (C); CN54 gp140 Env

Binder	Kd	koff	kon
B1	4.46 nM	0.00015 s⁻¹	33200 M⁻¹ s⁻¹
B2	0.0771 nM	7.12e-07 s⁻¹	9230 M⁻¹ s⁻¹
B5	0.00127 nM	–	–
B6	0.0625 nM	1.1e-06 s⁻¹	17600 M⁻¹ s⁻¹

Each binder was assayed against T3, gp120IIIB (subgroup B) (HIV-1, UniProt P04578 33-511) (assay: SPR).
T3 construct: it is not tied to this reagent; also called IIIB gp120 (B)

Binder	Kd	koff	kon
B1	4.42 nM	0.00077 s⁻¹	174000 M⁻¹ s⁻¹
B8	2.01 nM	0.00025 s⁻¹	122000 M⁻¹ s⁻¹
B3	0.0315 nM	0.000734 s⁻¹	2.3e+07 M⁻¹ s⁻¹
B6	4.11 nM	0.000711 s⁻¹	173000 M⁻¹ s⁻¹

These binders were tested against T4, CA018 gp140/420 (A/G) (HIV-1) (assay: SPR).
T4 construct: also called gp120 of CA18

Binder	Kd	koff	kon
B1	7 nM	0.00013 s⁻¹	18000 M⁻¹ s⁻¹
B2	1.18 nM	6.94e-05 s⁻¹	58800 M⁻¹ s⁻¹
B3	3500 nM	0.00298 s⁻¹	850 M⁻¹ s⁻¹
B4	8.86 nM	3.98e-05 s⁻¹	4490 M⁻¹ s⁻¹
B5	15.6 nM	–	–
B6	321 nM	0.428 s⁻¹	1.33e+06 M⁻¹ s⁻¹
